Source: patent publication US20210403565A1 (BIOATLA, published 2021)

How the values were obtained:
[1] = target: T1, cynomolgus CTLA4 expressed on the cell surface of CHO cells (cynomolgus, UniProt G7PL88 36-223); assay: FACS on CHO-cynoCTLA4 cells, pH 6.0, mean
T1 construct: whole, on cells; also called CHO-cynoCTLA4
T1 sequence: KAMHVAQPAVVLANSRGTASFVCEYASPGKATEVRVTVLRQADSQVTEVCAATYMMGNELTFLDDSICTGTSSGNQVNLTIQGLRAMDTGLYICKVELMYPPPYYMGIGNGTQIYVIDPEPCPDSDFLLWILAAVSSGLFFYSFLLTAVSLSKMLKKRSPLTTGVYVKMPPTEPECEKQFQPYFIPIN
Method: (§1) The amount of antibodies bound on the cells was quantified using anti-human IgG antibody conjugated to fluorophores. EC₅₀ values at pH 6.0 and 7.4 for binding to cells were calculated using the nonlinear fit (variable slope, four parameters) model built into GraphPad Prism software (version 7.03). The expression levels of human CTLA4 or cynomolgus CTLA4 on the surface of the CHO cells were determined using a BD QuantiBRITE™ PE kit.

[2] = target: T2, recombinant human CTLA4 extracellular domain (human, UniProt P16410 36-161); assay: SPR, human CTLA4 ECD immobilised, pH 6.0, AVG
T2 construct: extracellular domain; also called huCTLA-4
T2 sequence (looked up): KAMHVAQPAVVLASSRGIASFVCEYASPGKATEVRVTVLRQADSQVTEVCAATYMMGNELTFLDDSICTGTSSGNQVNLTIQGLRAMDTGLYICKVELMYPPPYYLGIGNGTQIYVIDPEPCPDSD
Method: (§2) The CTLA4 extracellular domain (human or cynomolgus) was immobilized on the surface of a sensor chip. […] The binding kinetics were calculated using a 1:1 Longmuir model built into the analysis software.

[3] = target: T2, recombinant human CTLA4 extracellular …; assay: SPR, human CTLA4 ECD immobilised, pH 7.4, AVG
Method: as §2

[4] = target: T2, recombinant human CTLA4 extracellular …; assay: ELISA, immobilised huCTLA-4, pH 6.0, Jul. 11, 2017
Method: EC₅₀ values at pH 6.0 for binding to human CTLA4 were calculated using the nonlinear fit model (variable slope, four parameters) of GraphPad Prism version 7.03.

[5] = target: T3, human CTLA4 expressed on the cell surface of CHO cells (human, UniProt P16410 36-223); assay: FACS, cells expressing human CTLA4, assay pH 6.0, MFI; lot 6972 in Tris buffer, T2W; unit from the axis Log[ng/mL]
T3 construct: whole, on cells; also called CHO-huCTLA4; huCTLA4
T3 sequence (looked up): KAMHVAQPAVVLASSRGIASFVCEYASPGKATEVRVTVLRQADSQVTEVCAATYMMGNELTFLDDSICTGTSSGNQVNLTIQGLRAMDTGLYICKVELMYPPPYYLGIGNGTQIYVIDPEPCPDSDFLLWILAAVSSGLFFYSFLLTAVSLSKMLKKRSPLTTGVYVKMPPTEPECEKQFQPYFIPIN
Method: (§3) The amount of bound antibodies was quantified using anti-human IgG antibody conjugated to fluorophores. The MFI in each reaction was proportional to the amount of antibodies bound. The EC₅₀ value (in ng/mL) for binding to human CTLA4 on cells was determined by MFI of the singlets population against antibody concentration with a Prism variable slope of four-parameter dose-response curve, which was calculated using the nonlinear fit (variable slope, four parameters) model built into GraphPad Prism software (version 7.03).

[6] = target: T3, human CTLA4 expressed on the cell …; assay: FACS, CHO cells expressing human CTLA4 (CHO-huCTLA-4), pH 6.0, MFI; no unit in the table, unit from the axis Log Antibodies [ng/ml]
Method: as §1
(§4) At least two independent duplicate FACS experiments were performed for each antibody using each of the cell lines. The binding activities at different concentrations of the antibodies are plotted in these figures.

[7] = target: T1, cynomolgus CTLA4 expressed on the cell …; assay: FACS, CHO cells expressing cynomolgus CTLA4 (CHO-cynoCTLA-4), pH 6.0, MFI; no unit in the table, unit from the axis Log Antibodies [ng/ml]
Method: as §1, §4

[8] = target: T1, cynomolgus CTLA4 expressed on the cell …; assay: FACS, CHO cells expressing cynomolgus CTLA4 (CHO-cynoCTLA-4), pH 7.4, MFI; curve still rising at log 5 (about 600000 against about 1900000 for Ipilimumab), no plateau; no unit in the table, unit from the axis Log Antibodies [ng/ml]
Method: as §1, §4

[9] = target: T3, human CTLA4 expressed on the cell …; assay: FACS, cells expressing human CTLA4, assay pH 6.0, MFI; lot 6978 in Glu buffer, T2W; unit from the axis Log[ng/mL]
Method: as §3

[10] = target: T3, human CTLA4 expressed on the cell …; assay: FACS, cells expressing human CTLA4, assay pH 7.4, MFI; lot 6978 in Glu buffer, T2W; unit from the axis Log[ng/mL]
Method: as §3

[11] = target: T2, recombinant human CTLA4 extracellular …; assay: ELISA, wells coated with human CTLA4, assay pH 7.4; lot 6978 in Glu buffer, T0; curve still rising at log 3 (OD450 at most about 0.3), no plateau; unit from the axis Log[ng/mL]
Method: Both ELISA and FACS analysis were used to measure the binding activity. […] The amount of bound antibodies was quantified using anti-human IgG antibody conjugated to HRP. The absorbance at 450 nm in each measurement was proportional to the amount of antibodies bound. […] EC50 value (in ng/mL) for binding to human CTLA4 was determined by absorbance at 450 nm against antibody concentration with Prism variable slope of four-parameter dose-response curve, which was calculated using the nonlinear fit (variable slope, four parameters) model built into GraphPad Prism software (version 7.03). The buffers tested included His buffer (His), Tris buffer (Tris), Glutamine buffer (Glu) and no buffer.

Binder | EC50 [1] [mg/L] | Kd [2] [nM] | koff [2] [s⁻¹] | kon [2] [M⁻¹ s⁻¹] | Kd [3] [nM] | koff [3] [s⁻¹] | kon [3] [M⁻¹ s⁻¹] | EC50 [4] [mg/L] | EC50 [5] [mg/L] | EC50 [6] [mg/L] | EC50 [7] [mg/L] | EC50 [8] [mg/L] | EC50 [9] [mg/L] | EC50 [10] [mg/L] | EC50 [11] [mg/L]
BA-087-05-19 (antibody, V domains shown, Detected with anti-human IgG and a molecular weight of 146 kDa was used in SPR, so it was tested as a whole IgG; also called BA-087-05-019; BA-087-05-19 (# 6972)) VH: EVQLVESGGGLVQPGGSLRLSCAASGFTFSHYTMHWVRQAPGKGLEWVSFISYDGNNKYYADSVKGRFTISRDNSKNTLYLQMNSLRAEDTAVYYCARTGWLGPFDYWGQGTLVTVSS VL: AIQLTQSPSSLSASVGDRVTITCRASQYVGSSYLAWYLQKPGQSPQLLIYGAFSRATGIPARFSGSGSGTEFTLTISSLQSEDFAVYYCQQDGSSPWTFGQGTKVEIK | 0.316 | 0.499 | 0.000611 | 1.23e+06 | 1.1 | 0.000958 | 869000 | 0.00835 | 0.352 | 0.247 | 0.242 | 8.28 | – | – | –
BA-087-08-32 (antibody, V domains shown, Detected with anti-human IgG and a molecular weight of 146 kDa was used in SPR, so it was tested as a whole IgG; also called BA-087-08-032; BA-087-08-32 (# 6978)) VH: EVQLVQSGAEVKKPGATVKISCKVSGFTFSHYTMHWIRQSPSRGLEWLGFISYDGNYKYYADSVKGRFTISRDNAKNSLYLQMNSLRAEDTAVYYCARTGWLGPFDYWGQGTLVTVSS VL: EIVMTQSPATLSVSPGERATLSCRASQSVGSSYLAWYQQKPGKAPKLLIYGAFSRATGVPSRFSGSGSGTDFTLTISSLQPEDFATYYCQQDGSSPWTFGQGTKVEIK | 0.403 | 0.451 | 0.00163 | 3.56e+06 | 45.2 | 0.0166 | 519000 | 0.00617 | – | 0.168 | 0.354 | – | 0.176 | 1.41 | 1.19
